Results from US20250236653A1 (ONKO INNATE, published 2025).
Several values for one entry are separate records, joined by “and”; a condition that tells them apart may be missing. Identical values can stand only once.

What was measured:
human OX40 [1] = target: T1, human OX40 (human, UniProt P43489 29-277); experiment: flow cytometry, monovalent fusion protein on hOX40-Jurkat-NF-κB cells
T1 construct: whole, on cells; also called hOX40
T1 sequence (looked up): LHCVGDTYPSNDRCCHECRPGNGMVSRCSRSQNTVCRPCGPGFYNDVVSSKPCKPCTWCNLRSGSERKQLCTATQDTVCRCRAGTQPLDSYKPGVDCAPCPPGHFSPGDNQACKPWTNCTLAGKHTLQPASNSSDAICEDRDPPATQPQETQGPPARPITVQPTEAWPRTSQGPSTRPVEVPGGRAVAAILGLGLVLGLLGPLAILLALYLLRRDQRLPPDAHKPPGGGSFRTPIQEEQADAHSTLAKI

cynomolgus monkey OX40 [2] = target: T2, cynomolgus monkey OX40 (cynomolgus monkey); experiment: flow cytometry on cOX40-Jurkat-NF-κB cells
T2 construct: whole, on cells; also called cOX40; cynomolgus OX40

human OX40 [3] = target: T1, human OX40; experiment: cell-based or functional assay
human OX40 [4] = target: T1, human OX40; experiment: competition, flow cytometry: inhibition of 2.5 nM A647-labelled OX40L-Fc binding to hOX40-Jurkat-NF-κB cells
Protocol: To investigate whether any of BGB-A445, 20E5, or 12H3 competed with OX40L for the OX40 binding site, we assessed the capacity of these clones, either in traditional IgG1 monospecific, bivalent mAb format or as bispecific, monovalent IL-12 ABD fusion proteins, to block binding of OX40L to hOX40-Jurkat-NF-κB cells. For the experiment, 30,000 hOX40-Jurkat-NF-κB cells were pre-incubated with 0-450 nM mAb or IL-12 ABD fusion protein for 10 minutes on ice prior to being stained for an additional 10 minutes on ice with 2.5 nM OX40L-Fc (Sino Biological, catalogue number 13127-H01H) that had been coupled to an A647 fluorophore using a Zenon Human IgG labelling kit (Invitrogen, catalogue number Z25408). Stained hOX40-Jurkat-NF-κB cells were analyzed by flow cytometry, and are depicted as percentage of OX40L-Fc positive cells within the OX40 positive gate (defined using a non-competing anti-OX40 mAb (clone Ber-ACT35, BioLegend catalogue number 350012) in FIG. 89.

human OX40 [5] = target: T1, human OX40; experiment: flow cytometry on hOX40-Jurkat-NF-κB cells
Protocol: (§1) Stained hOX40-Jurkat-NF-κB and cOX40-Jurkat-NF-κB cells were analyzed by flow cytometry using a CytoFLEX (Beckman Coulter), the results of which are depicted in FIGS. 78 and 79, respectively, and summarized in FIG. 80.
Binding of each of the sequence optimized IL-12 ABD fusion proteins to hOX40-Jurkat-NF-κB cells was performed as described in Example 16, the results of which are depicted in FIG. 87 and summarized in FIG. 88.

human OX40 [6] = target: T1, human OX40; experiment: flow cytometry on hOX40-Jurkat-NF-κB cells, as in Example 16
Protocol: as §1
(§2) Sequences for the VH and VL domains of an additional anti-human OX40 antibody (clone 41) are provided in FIG. 112 (SEQ ID NOs: 170 and 171, respectively). To investigate whether clone 41 would be suitable for use within IL-12 ABD fusion proteins, this antibody was recombinantly expressed in bivalent human IgG1 format (termed ‘hG1-clone 41’) and subjected to protein A purification. […] Next, hG1-clone 41 was assessed for its capacity to block the binding of OX40L to hOX40-Jurkat-NF-κB cells, as described in Example 19. […] The capacity of hG1-clone 41 to block OX40L-induced signaling in hOX40-Jurkat-NF-κB cells was also assessed using a similar experimental setup as described in Example 20, the results of which are depicted in FIG. 117. […] Finally, the capacity of hG1-clone 41 to trigger OX40 signaling was assessed in hOX40-Jurkat-NF-κB cells, as described in Example 25.

cynomolgus monkey OX40 [7] = target: T2, cynomolgus monkey OX40; experiment: flow cytometry on cOX40-Jurkat-NF-κB cells, as in Example 16
Protocol: as §1, §2

B1: mono-mut23-20E5 (Fc fusion)
chain: IWELKKDVYVVELDWYPDAPGEMVVLTCDTPEEDGITWTLDQSSEVLGSGKTLTIQVKEFGDAGQYTCHKGGEVLSHSLLLLHKKEDGIWSTDILKDQKEPKNKTFLRCEAKNYSGRFTCWWLTTISTDLTFSVKSSRGSSDPQGVTCGAATLSAERVRGDNKEYEYSVECQEDSACPAAEESLPIEVMVDAVHKLKYENYTSSFFIRDIIKPDPPKNLQLKPLKNSRQVEVSWEYPDTWSTPHSYFSLTFSVQVQGKSKREKKDRVFTDKTSATVICRKNASISVRAQDRYYSSSWSEWASVPCSGGGGSGGGGSGGGGSGGGGSGGGGSRNLPVATPDPGMFPCLHHSQNLLRAVSNMLQKARQTLEFSPCTSEEIDHEDITKDKTSTVEACLPLELTKNESCLNSRETSFITNGSCLASRKTSFMMALCLSSIYEDLKMYQVEFKTMNAKLLMDPKRQIFLDQNMLAVIDELMQALNFNSETVPQKSSLEEPDFYKTAIKLCILLHAFRIRAVTIDRVMSYLNASGGGGSGGGGSEPKSSDKTHTCPPCPAPEFEGGPSVFLFPPKPKDTLMISRTPEVTCVVVDVSHEDPEVKFNWYVDGVEVHNAKTKPREEQYNSTYRVVSVLTVLHQDWLNGKEYKCKVSNKALPASIEKTISKAKGQPREPQVCTLPPSRDELTKNQVSLSCAVKGFYPSDIAVEWESNGQPENNYKTTPPVLDSDGSFFLVSKLTVDKSRWQQGNVFSCSVMHEALHNHYTQKSLSLSPG
heavy: QVQLVQSGAEVKKPGASVKVSCKASGYTFTSYVMHWVRQAPGQRLEWIGYINPYNDGTKYNEKFKGRATLTSDKSASTAYMELSSLRSEDTAVYYCANYYGSSLSMDYWGQGTLVTVSSASTKGPSVFPLAPSSKSTSGGTAALGCLVKDYFPEPVTVSWNSGALTSGVHTFPAVLQSSGLYSLSSVVTVPSSSLGTQTYICNVNHKPSNTKVDKKVEPKSCDKTHTCPPCPAPEFEGGPSVFLFPPKPKDTLMISRTPEVTCVVVDVSHEDPEVKFNWYVDGVEVHNAKTKPREEQYNSTYRVVSVLTVLHQDWLNGKEYKCKVSNKALPASIEKTISKAKGQPREPQVYTLPPCRDELTKNQVSLWCLVKGFYPSDIAVEWESNGQPENNYKTTPPVLDSDGSFFLYSKLTVDKSRWQQGNVFSCSVMHEALHNHYTQKSLSLSPG
light: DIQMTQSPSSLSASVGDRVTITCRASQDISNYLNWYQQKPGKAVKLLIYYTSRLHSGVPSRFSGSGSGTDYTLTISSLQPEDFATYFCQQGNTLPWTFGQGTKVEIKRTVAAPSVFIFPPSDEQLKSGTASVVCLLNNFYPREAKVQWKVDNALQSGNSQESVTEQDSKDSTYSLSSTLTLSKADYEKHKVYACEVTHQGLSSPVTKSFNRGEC
notes: Monovalent for OX40
- binding result (human OX40 [1]): binds
- fold difference of EC50 against hOX40-Jurkat-NF-κB cells (cynomolgus monkey OX40 [2]): ≤ 2 fold

B2: mono-mut23-20E5_V4 (Fc fusion)
chain: IWELKKDVYVVELDWYPDAPGEMVVLTCDTPEEDGITWTLDQSSEVLGSGKTLTIQVKEFGDAGQYTCHKGGEVLSHSLLLLHKKEDGIWSTDILKDQKEPKNKTFLRCEAKNYSGRFTCWWLTTISTDLTFSVKSSRGSSDPQGVTCGAATLSAERVRGDNKEYEYSVECQEDSACPAAEESLPIEVMVDAVHKLKYENYTSSFFIRDIIKPDPPKNLQLKPLKNSRQVEVSWEYPDTWSTPHSYFSLTFSVQVQGKSKREKKDRVFTDKTSATVICRKNASISVRAQDRYYSSSWSEWASVPCSGGGGSGGGGSGGGGSGGGGSGGGGSRNLPVATPDPGMFPCLHHSQNLLRAVSNMLQKARQTLEFSPCTSEEIDHEDITKDKTSTVEACLPLELTKNESCLNSRETSFITNGSCLASRKTSFMMALCLSSIYEDLKMYQVEFKTMNAKLLMDPKRQIFLDQNMLAVIDELMQALNFNSETVPQKSSLEEPDFYKTAIKLCILLHAFRIRAVTIDRVMSYLNASGGGGSGGGGSEPKSSDKTHTCPPCPAPEFEGGPSVFLFPPKPKDTLMISRTPEVTCVVVDVSHEDPEVKFNWYVDGVEVHNAKTKPREEQYNSTYRVVSVLTVLHQDWLNGKEYKCKVSNKALPASIEKTISKAKGQPREPQVCTLPPSRDELTKNQVSLSCAVKGFYPSDIAVEWESNGQPENNYKTTPPVLDSDGSFFLVSKLTVDKSRWQQGNVFSCSVMHEALHNHYTQKSLSLSPG
heavy: QVQLVQSGAEVKKPGASVKVSCKASGYTFTSYVMHWVRQAPGQRLEWIGYINPYNEGTKYNEKFKGRATLTSDKSASTAYMELSSLRSEDTAVYYCANYYGSSLSMDYWGQGTLVTVSSASTKGPSVFPLAPSSKSTSGGTAALGCLVKDYFPEPVTVSWNSGALTSGVHTFPAVLQSSGLYSLSSVVTVPSSSLGTQTYICNVNHKPSNTKVDKKVEPKSCDKTHTCPPCPAPEFEGGPSVFLFPPKPKDTLMISRTPEVTCVVVDVSHEDPEVKFNWYVDGVEVHNAKTKPREEQYNSTYRVVSVLTVLHQDWLNGKEYKCKVSNKALPASIEKTISKAKGQPREPQVYTLPPCRDELTKNQVSLWCLVKGFYPSDIAVEWESNGQPENNYKTTPPVLDSDGSFFLYSKLTVDKSRWQQGNVFSCSVMHEALHNHYTQKSLSLSPG
light: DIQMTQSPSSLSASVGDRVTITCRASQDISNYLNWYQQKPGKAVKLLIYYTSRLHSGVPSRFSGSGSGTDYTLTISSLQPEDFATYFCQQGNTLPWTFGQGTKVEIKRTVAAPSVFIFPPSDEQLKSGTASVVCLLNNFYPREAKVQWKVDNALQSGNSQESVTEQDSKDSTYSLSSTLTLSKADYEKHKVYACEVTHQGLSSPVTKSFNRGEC
- IFNγ release by conventional CD4+ T cells (AlphaLISA), EC50, two PBMC donors (human OX40 [3]): 27.7 pM and 19.5 pM
- IFNγ release by induced Treg cells (AlphaLISA), EC50, two PBMC donors (human OX40 [3]): 5.7 pM and 13.8 pM

B3: mono-mut23-12H3 (Fc fusion)
chain: IWELKKDVYVVELDWYPDAPGEMVVLTCDTPEEDGITWTLDQSSEVLGSGKTLTIQVKEFGDAGQYTCHKGGEVLSHSLLLLHKKEDGIWSTDILKDQKEPKNKTFLRCEAKNYSGRFTCWWLTTISTDLTFSVKSSRGSSDPQGVTCGAATLSAERVRGDNKEYEYSVECQEDSACPAAEESLPIEVMVDAVHKLKYENYTSSFFIRDIIKPDPPKNLQLKPLKNSRQVEVSWEYPDTWSTPHSYFSLTFSVQVQGKSKREKKDRVFTDKTSATVICRKNASISVRAQDRYYSSSWSEWASVPCSGGGGSGGGGSGGGGSGGGGSGGGGSRNLPVATPDPGMFPCLHHSQNLLRAVSNMLQKARQTLEFSPCTSEEIDHEDITKDKTSTVEACLPLELTKNESCLNSRETSFITNGSCLASRKTSFMMALCLSSIYEDLKMYQVEFKTMNAKLLMDPKRQIFLDQNMLAVIDELMQALNFNSETVPQKSSLEEPDFYKTAIKLCILLHAFRIRAVTIDRVMSYLNASGGGGSGGGGSEPKSSDKTHTCPPCPAPEFEGGPSVFLFPPKPKDTLMISRTPEVTCVVVDVSHEDPEVKFNWYVDGVEVHNAKTKPREEQYNSTYRVVSVLTVLHQDWLNGKEYKCKVSNKALPASIEKTISKAKGQPREPQVCTLPPSRDELTKNQVSLSCAVKGFYPSDIAVEWESNGQPENNYKTTPPVLDSDGSFFLVSKLTVDKSRWQQGNVFSCSVMHEALHNHYTQKSLSLSPG
heavy: QVQLVQSGAEVKKPGSSVKVSCKASGYTFKDYTMHWVRQAPGQGLEWIGGIYPNNGGSTYNQNFKDRVTLTADKSTSTAYMELSSLRSEDTAVYYCARMGYHGPHLDFDVWGQGTTVTVSSASTKGPSVFPLAPSSKSTSGGTAALGCLVKDYFPEPVTVSWNSGALTSGVHTFPAVLQSSGLYSLSSVVTVPSSSLGTQTYICNVNHKPSNTKVDKKVEPKSCDKTHTCPPCPAPEFEGGPSVFLFPPKPKDTLMISRTPEVTCVVVDVSHEDPEVKFNWYVDGVEVHNAKTKPREEQYNSTYRVVSVLTVLHQDWLNGKEYKCKVSNKALPASIEKTISKAKGQPREPQVYTLPPCRDELTKNQVSLWCLVKGFYPSDIAVEWESNGQPENNYKTTPPVLDSDGSFFLYSKLTVDKSRWQQGNVFSCSVMHEALHNHYTQKSLSLSPG
light: DIQMTQSPSSLSASVGDRVTITCKASQDVGAAVAWYQQKPGKAPKLLIYWASTRHTGVPSRFSGSGSGTDFTLTISSLQPEDFATYYCQQYINYPLTFGGGTKVEIKRTVAAPSVFIFPPSDEQLKSGTASVVCLLNNFYPREAKVQWKVDNALQSGNSQESVTEQDSKDSTYSLSSTLTLSKADYEKHKVYACEVTHQGLSSPVTKSFNRGEC
notes: Monovalent for OX40
- IC50 (human OX40 [4]): 227000 pM
- fold difference of EC50 against hOX40-Jurkat-NF-κB cells (cynomolgus monkey OX40 [2]): ≤ 2 fold
- EC50 (human OX40 [5]): 13600 pM

B4: hG1-clone 41 (antibody, V domains shown)
VH: QVQLVESGGGVVQPGRSLRLSCAASGFTFSSYGMHWVRQAPGKGLEWVALISYDGSNKIYTDSVKGRFTISRDNSKNTLYLQMNSLRPEDTAVYYCAKGREIVATYFDYWGQGTLVTVSS
VL: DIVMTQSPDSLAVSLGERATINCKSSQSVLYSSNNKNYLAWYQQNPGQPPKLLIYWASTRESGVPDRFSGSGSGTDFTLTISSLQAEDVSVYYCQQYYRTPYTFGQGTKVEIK
notes: Recombinantly expressed in bivalent human IgG1 format
- EC50 (human OX40 [6]): 1100 pM
- EC50 (cynomolgus monkey OX40 [7]): 1000 pM
